According to the supplement of paper PMC5998384:

Columns and labels:
[1] = tested on: HeLa Kyoto; assay: solubility change mitosis vs G1/S (difference of NP-40 vs SDS log2 ratios) (log2 ratio difference); higher = more soluble in mitosis
[2] = tested on: HeLa Kyoto; assay: melting temperature (median over replicates), in situ; higher = more thermally stable
[3] = tested on: HeLa Kyoto; assay: solubility in G1/S (NP-40 vs SDS abundance) (log2 ratio); higher = more soluble; details: cell cycle stage: G1/S
[4] = tested on: HeLa Kyoto; assay: thermal stability score vs G1/S (z-score of summed log2 fold changes over temperatures); higher = more thermally stable than in G1/S
[5] = cell cycle stage: early G1 (4.5 h after nocodazole release)
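For melting temperature (median over replicates), in situ in this document: HeLa Kyoto cells synchronized by double thymidine or nocodazole block, proteins quantified by TMT10plex mass spectrometry, three independent biological replicates.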
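For solubility change mitosis vs G1/S (difference of NP-40 vs SDS log2 ratios) in this document: synchronized HeLa Kyoto cells (double thymidine block for G1/S, nocodazole release for mitosis), protein amounts in NP-40 versus SDS lysates quantified by mass spectrometry, three biological replicates.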
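For solubility in G1/S (NP-40 vs SDS abundance) in this document: HeLa Kyoto cells arrested at G1/S by double thymidine block, proteins quantified by TMT10plex mass spectrometry in mild NP-40 versus SDS extracts, three biological replicates.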
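For thermal stability score vs G1/S (z-score of summed log2 fold changes over temperatures) in this document: synchronized HeLa Kyoto cells, proteins quantified by TMT10plex mass spectrometry, three biological replicates, mitosis taken 0.5 h after nocodazole release, G1/S directly after double thymidine block.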

Row | Sequence | solubility change mitosis (log2) [1] | melting temperature ([2]; cell cycle stage: G1/S) | melting temperature ([2]; cell cycle stage: mitosis) | solubility in G1/S (log2) [3] | thermal stability score [4, 5] | thermal stability score ([4]; cell cycle stage: mitosis)
1 | MAEGGGCRERPDAETQKSELGPLMRTTLQRGAQWYLIDSRWFKQWKKYVGFDSWDMYNVGEHNLFPGPIDNSGLFSDPESQTLKEHLIDELDYVLVPTEAWNKLLNWYGCVEGQQPIVRKVVEHGLFVKHCKVEVYLLELKLCENSDPTNVLSCHFSKADTIATIEKEMRKLFNIPAERETRLWNKYMSNTYEQLSKLDNTVQDAGLYQGQVLVIEPQNEDGTWPRQTLQSKSSTAPSRNFTTSPKSSASPYSSVSASLIANGDSTSTCGMHSSGVSRGGSGFSASYNCQEPPSSHIQPGLCGLGNLGNTCFMNSALQCLSNTAPLTDYFLKDEYEAEINRDNPLGMKGEIAEAYAELIKQMWSGRDAHVAPRMFKTQVGRFAPQFSGYQQQDSQELLAFLLDGLHEDLNRVKKKPYLELKDANGRPDAVVAKEAWENHRLRNDSVIVDTFHGLFKSTLVCPECAKVSVTFDPFCYLTLPLPLKKDRVMEVFLVPADPHCRPTQYRVTVPLMGAVSDLCEALSRLSGIAAENMVVADVYNHRFHKIFQMDEGLNHIMPRDDIFVYEVCSTSVDGSECVTLPVYFRERKSRPSSTSSASALYGQPLLLSVPKHKLTLESLYQAVCDRISRYVKQPLPDEFGSSPLEPGACNGSRNSCEGEDEEEMEHQEEGKEQLSETEGSGEDEPGNDPSETTQKKIKGQPCPKRLFTFSLVNSYGTADINSLAADGKLLKLNSRSTLAMDWDSETRRLYYDEQESEAYEKHVSMLQPQKKKKTTVALRDCIELFTTMETLGEHDPWYCPNCKKHQQATKKFDLWSLPKILVVHLKRFSYNRYWRDKLDTVVEFPIRGLNMSEFVCNLSARPYVYDLIAVSNHYGAMGVGHYTAYAKNKLNGKWYYFDDSNVSLASEDQIVTKAAYVLFYQRRDDEFYKTPSLSSSGSSDGGTRPSSSQQGFGDDEACSMDTN [USP4] | -0.278 | 48.4 °C | 48.5 °C | 0.0816 | 0.154 | 0.64
2 | MAEGSAVSDPQHAARLLRALSSFREESRFCDAHLVLDGEEIPVQKNILAAASPYIRTKLNYNPPKDDGSTYKIELEGISVMVMREILDYIFSGQIRLNEDTIQDVVQAADLLLLTDLKTLCCEFLEGCIAAENCIGIRDFALHYCLHHVHYLATEYLETHFRDVSSTEEFLELSPQKLKEVISLEKLNVGNERYVFEAVIRWIAHDTEIRKVHMKDVMSALWVSGLDSSYLREQMLNEPLVREIVKECSNIPLSQPQQGEAMLANFKPRGYSECIVTVGGEERVSRKPTAAMRCMCPLYDPNRQLWIELAPLSMPRINHGVLSAEGFLFVFGGQDENKQTLSSGEKYDPDANTWTALPPMNEARHNFGIVEIDGMLYILGGEDGEKELISMECYDIYSKTWTKQPDLTMVRKIGCYAAMKKKIYAMGGGSYGKLFESVECYDPRTQQWTAICPLKERRFGAVACGVAMELYVFGGVRSREDAQGSEMVTCKSEFYHDEFKRWIYLNDQNLCIPASSSFVYGAVPIGASIYVIGDLDTGTNYDYVREFKRSTGTWHHTKPLLPSDLRRTGCAALRIANCKLFRLQLQQGLFRIRVHSP [GAN] | -0.271 | 51.6 °C | 48.7 °C | -0.0081 | -0.83 | -2.48
3 | MAEGSGEVVAVSATGAANGLNNGAGGTSATTCNPLSRKLHKILETRLDNDKEMLEALKALSTFFVENSLRTRRNLRGDIERKSLAINEEFVSIFKEVKEELESISEDVQAMSNCCQDMTSRLQAAKEQTQDLIVKTTKLQSESQKLEIRAQVADAFLSKFQLTSDEMSLLRGTREGPITEDFFKALGRVKQIHNDVKVLLRTNQQTAGLEIMEQMALLQETAYERLYRWAQSECRTLTQESCDVSPVLTQAMEALQDRPVLYKYTLDEFGTARRSTVVRGFIDALTRGGPGGTPRPIEMHSHDPLRYVGDMLAWLHQATASEKEHLEALLKHVTTQGVEENIQEVVGHITEGVCRPLKVRIEQVIVAEPGAVLLYKISNLLKFYHHTISGIVGNSATALLTTIEEMHLLSKKIFFNSLSLHASKLMDKVELPPPDLGPSSALNQTLMLLREVLASHDSSVVPLDARQADFVQVLSCVLDPLLQMCTVSASNLGTADMATFMVNSLYMMKTTLALFEFTDRRLEMLQFQIEAHLDTLINEQASYVLTRVGLSYIYNTVQQHKPEQGSLANMPNLDSVTLKAAMVQFDRYLSAPDNLLIPQLNFLLSATVKEQIVKQSTELVCRAYGEVYAAVMNPINEYKDPENILHRSPQQVQTLLS [COG6] | -0.0596 | 48.6 °C | 49.3 °C | 0.289 | 0.0299 | 0.655
4 | MAEKFDCHYCRDPLQGKKYVQKDGHHCCLKCFDKFCANTCVECRKPIGADSKEVHYKNRFWHDTCFRCAKCLHPLANETFVAKDNKILCNKCTTREDSPKCKGCFKAIVAGDQNVEYKGTVWHKDCFTCSNCKQVIGTGSFFPKGEDFYCVTCHETKFAKHCVKCNKAITSGGITYQDQPWHADCFVCVTCSKKLAGQRFTAVEDQYYCVDCYKNFVAKKCAGCKNPITGKRTVSRVSHPVSKARKPPVCHGKRLPLTLFPSANLRGRHPGGERTCPSWVVVLYRKNRSLAAPRGPGLVKAPVWWPMKDNPGTTTASTAKNAP [FHL1] | -0.0498 | 56.4 °C | 58.5 °C | -0.37 | 0.0455 | -3.17
5 | MAELDIGQHCQVEHCRQRDFLPFVCDDCSGIFCLEHRSRESHGCPEVTVINERLKTDQHTSYPCSFKDCAERELVAVICPYCEKNFCLRHRHQSDHECEKLEIPKPRMAATQKLVKDIIDSKTGETASKRWKGAKNSETAAKVALMKLKMHADGDKSLPQTERIYFQVFLPKGSKEKSKPMFFCHRWSIGKAIDFAASLARLKNDNNKFTAKKLRLCHITSGEALPLDHTLETWIAKEDCPLYNGGNIILEYLNDEEQFCKNVESYLE [ZFAND1] | -0.173 | 50.6 °C | 49.9 °C | 0.496 | -0.0516 | 1.54
6 | MAELTALESLIEMGFPRGRAEKALALTGNQGIEAAMDWLMEHEDDPDVDEPLETPLGHILGREPTSSEQGGLEGSGSAAGEGKPALSEEERQEQTKRMLELVAQKQREREEREEREALERERQRRRQGQELSAARQRLQEDEMRRAAEERRREKAEELAARQRVREKIERDKAERAKKYGGSVGSQPPPVAPEPGPVPSSPSQEPPTKREYDQCRIQVRLPDGTSLTQTFRAREQLAAVRLYVELHRGEELGGGQDPVQLLSGFPRRAFSEADMERPLQELGLVPSAVLIVAKKCPS [UBXN1] | 0.313 | 52.1 °C | 51.3 °C | 0.608 | -1.73 | -2.31
7 | MAEPFLSEYQHQPQTSNCTGAAAVQEELNPERPPGAEERVPEEDSRWQSRAFPQLGGRPGPEGEGSLESQPPPLQTQACPESSCLREGEKGQNGDDSSAGGDFPPPAEVEPTPEAELLAQPCHDSEASKLGAPAAGGEEEWGQQQRQLGKKKHRRRPSKKKRHWKPYYKLTWEEKKKFDEKQSLRASRIRAEMFAKGQPVAPYNTTQFLMDDHDQEEPDLKTGLYSKRAAAKSDDTSDDDFMEEGGEEDGGSDGMGGDGSEFLQRDFSETYERYHTESLQNMSKQELIKEYLELEKCLSRMEDENNRLRLESKRLGGDDARVRELELELDRLRAENLQLLTENELHRQQERAPLSKFGD [HEXIM1] | 0.123 | 57.6 °C | 55.5 °C | 0.211 | -4.2 | -2.03
8 | MAEPTVCSFLTKVLCAHGGRMFLKDLRGHVELSEARLRDVLQRAGPERFLLQEVETQEGLGDAEAEAAAGAVGGGGTSAWRVVAVSSVRLCARYQRGECQACDQLHFCRRHMLGKCPNRDCWSTCTLSHDIHTPVNMQVLKSHGLFGLNENQLRILLLQNDPCLLPEVCLLYNKGEALYGYCNLKDKCNKFHVCKSFVKGECKLQTCKRSHQLIHAASLKLLQDQGLNIPSVVNFQIISTYKHMKLHKMLENTDNSSPSTEHSQGLEKQGVHAAGAAEAGPLASVPAQSAKKPCPVSCEK [ZC3HAV1L] | -0.0672 | 50.2 °C | 50.2 °C | 0.135 | 0.166 | -0.0104
9 | MAEQATKSVLFVCLGNICRSPIAEAVFRKLVTDQNISENWRVDSAATSGYEIGNPPDYRGQSCMKRHGIPMSHVARQITKEDFATFDYILCMDESNLRDLNRKSNQVKTCKAKIELLGSYDPQKQLIIEDPYYGNDSDFETVYQQCVRCCRAFLEKAH [ACP1] | -0.0468 | 50.2 °C | 51 °C | 0.178 | -0.241 | -0.21
10 | MAEQLSPGKAVDQVCTFLFKKPGRKGAAGRRKRPACDPEPGESGSSSDEGCTVVRPEKKRVTHNPMIQKTRDSGKQKAAYGDLSSEEEEENEPESLGVVYKSTRSAKPVGPEDMGATAVYELDTEKERDAQAIFERSQKIQEELRGKEDDKIYRGINNYQKYMKPKDTSMGNASSGMVRKGPIRAPEHLRATVRWDYQPDICKDYKETGFCGFGDSCKFLHDRSDYKHGWQIERELDEGRYGVYEDENYEVGSDDEEIPFKCFICRQSFQNPVVTKCRHYFCESCALQHFRTTPRCYVCDQQTNGVFNPAKELIAKLEKHRATGEGGASDLPEDPDEDAIPIT [RNF113A] | 0.0489 | 55.6 °C | 63.5 °C | 0.17 | -3.12 | -4.15
11 | MAERGGDGGESERFNPGELRMAQQQALRFRGPAPPPNAVMRGPPPLMRPPPPFGMMRGPPPPPRPPFGRPPFDPNMPPMPPPGGIPPPMGPPHLQRPPFMPPPMSSMPPPPGMMFPPGMPPVTAPGTPALPPTEEIWVENKTPDGKVYYYNARTRESAWTKPDGVKVIQQSELTPMLAAQAQVQAQAQAQAQAQAQAQAQAQAQAQAQAQAQAQAQAQAQAQAQAQAQAQAQAQAQAQAQAQVQAQVQAQVQAQAVGASTPTTSSPAPAVSTSTSSSTPSSTTSTTTTATSVAQTVSTPTTQDQTPSSAVSVATPTVSVSTPAPTATPVQTVPQPHPQTLPPAVPHSVPQPTTAIPAFPPVMVPPFRVPLPGMPIPLPGVAMMQIVSCPYVKTVATTKTGVLPGMAPPIVPMIHPQVAIAASPATLAGATAVSEWTEYKTADGKTYYYNNRTLESTWEKPQELKEKEKLEEKIKEPIKEPSEEPLPMETEEEDPKEEPIKEIKEEPKEEEMTEEEKAAQKAKPVATAPIPGTPWCVVWTGDERVFFYNPTTRLSMWDRPDDLIGRADVDKIIQEPPHKKGMEELKKLRHPTPTMLSIQKWQFSMSAIKEEQELMEEINEDEPVKAKKRKRDDNKDIDSEKEAAMEAEIKAARERAIVPLEARMKQFKDMLLERGVSAFSTWEKELHKIVFDPRYLLLNPKERKQVFDQYVKTRAEEERREKKNKIMQAKEDFKKMMEEAKFNPRATFSEFAAKHAKDSRFKAIEKMKDREALFNEFVAAARKKEKEDSKTRGEKIKSDFFELLSNHHLDSQSRWSKVKDKVESDPRYKAVDSSSMREDLFKQYIEKIAKNLDSEKEKELERQARIEASLREREREVQKARSEQTKEIDREREQHKREEAIQNFKALLSDMVRSSDVSWSDTRRTLRKDHRWESGSLLEREEKEKLFNEHIEALTKKKREHFRQLLDETSAITLTSTWKEVKKIIKEDPRCIKFSSSDRKKQREFEEYIRDKYITAKADFRTLLKETKFITYRSKKLIQESDQHLKDVEKILQNDKRYLVLDCVPEERRKLIVAYVDDLDRRGPPPPPTASEPTRRSTK [TCERG1] | -0.0317 | 48.5 °C | 48.8 °C | 0.0535 | 2.7 | 5.16
12 | MAERQEEQRGSPPLRAEGKADAEVKLILYHWTHSFSSQKVRLVIAEKALKCEEHDVSLPLSEHNEPWFMRLNSTGEVPVLIHGENIICEATQIIDYLEQTFLDERTPRLMPDKESMYYPRVQHYRELLDSLPMDAYTHGCILHPELTVDSMIPAYATTRIRSQIGNTESELKKLAEENPDLQEAYIAKQKRLKSKLLDHDNVKYLKKILDELEKVLDQVETELQRRNEETPEEGQQPWLCGESFTLADVSLAVTLHRLKFLGFARRNWGNGKRPNLETYYERVLKRKTFNKVLGHVNNILISAVLPTAFRVAKKRAPKVLGTTLVVGLLAGVGYFAFMLFRKRLGSMILAFRPRPNYF [GDAP1] | -0.1 | 54 °C | 52 °C | -0.194 | 1.45 | 1.45
